For one molecule, Kd results are on record in patent publication US6342348 (GENETECH, dated 2002).

The target of the assay is T1, recombinant soluble rat GDNFRα (rat, UniProt Q62997 25-427, limits assumed).
T1 construct: also called rGDNFRα; GFR-alpha-1
T1 sequence (looked up): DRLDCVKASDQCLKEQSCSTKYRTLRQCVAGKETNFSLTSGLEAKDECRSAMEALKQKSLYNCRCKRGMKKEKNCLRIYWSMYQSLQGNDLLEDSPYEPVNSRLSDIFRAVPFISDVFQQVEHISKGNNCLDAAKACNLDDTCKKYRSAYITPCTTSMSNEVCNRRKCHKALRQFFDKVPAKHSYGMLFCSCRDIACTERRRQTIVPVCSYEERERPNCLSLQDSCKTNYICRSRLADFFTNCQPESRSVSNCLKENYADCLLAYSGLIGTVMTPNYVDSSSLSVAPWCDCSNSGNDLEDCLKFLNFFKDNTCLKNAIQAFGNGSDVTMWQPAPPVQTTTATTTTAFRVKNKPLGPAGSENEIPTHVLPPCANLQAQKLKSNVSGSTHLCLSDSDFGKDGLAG
The assay can be described thus: equilibrium competition binding of ^125I-rGDNF to recombinant soluble rGDNFRα, Scatchard.

B1: rat GDNF (ligand, UniProt Q07731 78-211, looked up)
chain: SPDKQAAALPRRERNRQAAAASPENSRGKGRRGQRGKNRGCVLTAIHLNVTDLGLGYETKEELIFRYCSGSCEAAETMYDKILKNLSRSRRLTSDKVGQACCRPVAFDDDLSFLDDSLVYHILRKHSAKRCGCI
modifications: ^125I label (iodinated either on tyrosine by the Bolton Hunter method or on lysine using lactoperoxidase)
notes: also called rGDNF; RGDNF
For orientation: Kd means the constant that tells how readily two partners part at equilibrium. In the case of B1, the Kd turned out to be 3 pM.
